These results are taken from article PMC4199108 (Nature Communications, 2014).

The Kd is the free concentration of one partner at which half of the binding sites on the other are occupied at equilibrium, for simple one-to-one binding. Lower therefore signals tighter binding.

Test [1] concerns the target T1, phosphorylated rhodopsin (Meta II) (Bos taurus, UniProt P02699). Kind of test: Extra Meta II assay: stabilization of Meta II by peptide, UV-visible absorption. The following applies: 10 μM ROS-P, 100 mM HEPES pH 8.0, 0 °C, 380-nm absorbance. The class given is binding, bovine.
Test [2] concerns the target phosphorylated opsin (OpsP) (Bos taurus, UniProt P02699). The class given is binding, bovine. The following applies: 1 μM arrestin A366NBD + 2 μM OpsP, 50 mM HEPES pH 7.0, 22 °C.
The target in test [3] is phosphorylated opsin (OpsP) in membranes (bovine, UniProt P02699 1-348, phosphorylated by native rhodopsin kinase (sites not given)). Kind of test: co-sedimentation.
Sequence of phosphorylated opsin (OpsP) in membranes (P02699 whole entry): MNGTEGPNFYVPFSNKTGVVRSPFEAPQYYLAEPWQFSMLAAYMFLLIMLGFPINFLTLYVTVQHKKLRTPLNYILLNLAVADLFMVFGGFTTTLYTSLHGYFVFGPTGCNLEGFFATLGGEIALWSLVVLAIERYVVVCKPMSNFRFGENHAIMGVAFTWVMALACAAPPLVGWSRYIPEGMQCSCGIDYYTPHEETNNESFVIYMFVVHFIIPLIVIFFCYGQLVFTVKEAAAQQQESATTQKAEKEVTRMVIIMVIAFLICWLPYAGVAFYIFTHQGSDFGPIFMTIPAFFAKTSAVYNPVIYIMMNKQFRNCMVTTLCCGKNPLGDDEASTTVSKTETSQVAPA
Test [4] deals with T1, phosphorylated rhodopsin (Meta II). The following applies: 380-nm-absorbing Meta II; cited from earlier work.

Residues, ends and D or L forms follow the SMILES beside them.

T1 sequence (P02699 whole entry): as above
Sequence of phosphorylated opsin (OpsP) (P02699 whole entry): as above

On to `CC[C@H](C)[C@H](NC(=O)[C@H](CC(=O)O)NC(=O)[C@H](CCC(=O)O)NC(=O)[C@H](CCC(N)=O)NC(=O)CNC(=O)[C@@H](N)Cc1ccc(O)cc1)C(=O)N[C@@H](CC(=O)O)C(=O)N[C@H](C(=O)N[C@@H](CCSC)C(=O)NCC(=O)N[C@@H](CC(C)C)C(=O)O)C(C)C` [ArrFL-1] (H-YGQEDIDVMGL-OH), for which, in test [1], the “Stabilization of Meta II / Extra Meta II formation (in words)” value is “stabilized the 380-nm-absorbing Meta II species over Meta I”.
With QRMHLRQYELL [GsαCT], in test [1], the “Stabilization of Meta II / Extra Meta II formation (in words)” value is “did not stabilize Meta II”. The “Competition for arrestin binding to phosphorylated opsin (in words)” value in test [2] is reported as “showed no competition for arrestin binding to phosphorylated opsin”.

B1: GtαCT, wild-type Gtα C-terminal peptide (peptide)
peptide: IKENLKDCGLF
In test [3], B1 yielded a Kd of 880 µM.

B2: GtαCT-HA, high-affinity version of the Gtα C-terminal peptide (peptide)
peptide: ILENLKDCGLF
In test [3], B2 showed a Kd of 320 µM.

B3: ArrFL-1, peptide analogue of the finger loop of rod photoreceptor arrestin (peptide)
peptide: YGQEDIDVMGL
In test [3], B3 displayed a Kd of 1700 µM.

B4: ArrFL-2/3, finger loop peptide of beta-arrestin-1 and beta-arrestin-2 (peptide)
peptide: YGREDLDVLGL
Molecule B4 yielded a Kd in test [3] of 2400 µM.

B5: arrestin: full-length rod photoreceptor arrestin (protein)
chain: MKANKPAPNHVIFKKISRDKSVTIYLGKRDYIDHVERVEPVDGVVLVDPELVKGKRVYVSLTAAFRYGQEDIDVMGLSFRRDLYFSQVQVFPPVGASGATTRLQESLIKKLGANTYPFLLTFPDYLPSSVMLQPAPQDVGKSAGVDFEIKAFATHSTDVEEDKIPKKSSVRLLIRKVQHAPRDMGPQPRAEASFQFFMSDKPLRLAVSLSKEIYYHGEPIPVTVAVTNSTEKTVKKIKVLVEQVTNVVLYSSDYYIKTVAAEEAQEKVPPNSSLTKTLTLVPLLANNRERRGIALDGKIKHEDTNLASSTIIKEGIDKTVMGILVSYQIKVKLTVSGLLGELTSSEVATEVPFRLMHPQPEDPDTCKESFQDENFVFEEFARQNLKDAGEYKEEKTDQEAAMDE
modifications: NBD label on the single cysteine A366C
As for B5, in test [4], the “Stabilization of Meta II species over Meta I” value is “stabilized the 380-nm-absorbing Meta II species over Meta I”.
